# System: PL-FXa-b2AR fusion protein (ED - Factor Xa cleavage site - beta2-adrenergic receptor) on HEK293 transient transfectant cells
substance,measurement,value
Factor Xa,"EFC activity (relative luminescent units, RLU)","a difference in about 30,000 RLUs was observed over a range in concentration of FXa of about 10^-3 to 10^1 ug/mL"

# Reference: patent US7256011
